Experiments:
[1] = molecular target: GhV F I268F/Q287P ectodomain (Ghanaian virus); assay: negative-stain EM
[2] = molecular target: GhV F I268F/Q287P/S196C/A215C ectodomain (Ghanaian virus); assay: negative-stain EM

Row | Substance | stoichiometry N [1] | stoichiometry N [2]
1 | GhV F I268F/Q287P ectodomain (domain or fragment) | 3 | –
2 | GhV F I268F/Q287P/S196C/A215C ectodomain (domain or fragment) | – | 3
